pKd: −log10 of the molar value.
Biological target: recombinant human cardiotrophin-like cytokine factor 1 (CLCF1) (human) (UniProt Q9UBD9)
Experiment: yeast display binding

recombinant human cardiotrophin-like cytokine factor 1 (CLCF1) (human), sequence (Q9UBD9 28-225): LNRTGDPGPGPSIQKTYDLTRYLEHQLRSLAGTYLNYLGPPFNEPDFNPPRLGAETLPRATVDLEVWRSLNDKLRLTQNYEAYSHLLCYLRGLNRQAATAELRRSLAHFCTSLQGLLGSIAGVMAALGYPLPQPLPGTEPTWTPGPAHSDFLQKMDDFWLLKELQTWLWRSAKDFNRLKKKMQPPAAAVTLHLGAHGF

pKd: 10.85
Substance: yeast-displayed eCNTFR (variant 4 with Y177H and K178N) (from UniProt P26992 20-342)

Reference: patent US20190359683A1
